# Assay results as given in patent US20230190951A1, “CONJUGATES OF ANTIBODIES AN IMMUNE CELL ENGAGERS” (SYNAFFIX B.V., priority 2020, published 2023).
# Experiments:
# [1] = target: CD3 on the cell surface of Jurkat E6.1 cells (UniProt P07766); assay: flow cytometry on Jurkat E6.1 cells, 0.32 nM antibody, anti-IgG1-PE; negative control
# [2] = target: CD3 on the cell surface of Jurkat E6.1 cells (UniProt P07766); assay: flow cytometry on Jurkat E6.1 cells, 1 nM antibody, anti-IgG1-PE; negative control
# [3] = target: CD3 on the cell surface of Jurkat E6.1 cells (UniProt P07766); assay: flow cytometry on Jurkat E6.1 cells, 316 nM antibody, anti-IgG1-PE; negative control
# [4] = target: CD3 on the cell surface of Jurkat E6.1 cells (UniProt P07766); assay: flow cytometry on Jurkat E6.1 cells, 3.16 nM antibody, anti-IgG1-PE; negative control
# [5] = target: CD3 on the cell surface of Jurkat E6.1 cells (UniProt P07766); assay: flow cytometry on Jurkat E6.1 cells, 10 nM antibody, anti-IgG1-PE; negative control
# [6] = target: CD3 on the cell surface of Jurkat E6.1 cells (UniProt P07766); assay: flow cytometry on Jurkat E6.1 cells, 1000 nM antibody, anti-IgG1-PE; negative control
# [7] = target: CD3 on the cell surface of Jurkat E6.1 cells (UniProt P07766); assay: flow cytometry on Jurkat E6.1 cells, 31.6 nM antibody, anti-IgG1-PE; negative control
# [8] = target: CD3 on the cell surface of Jurkat E6.1 cells (UniProt P07766); assay: flow cytometry on Jurkat E6.1 cells, 100 nM antibody, anti-IgG1-PE; negative control
# FcRn receptor = assay: SPR (Biacore T200), FcRn on CM5 chip, steady state analysis, pH 6.0; pH 6.0
# CD3 on the cell surface of Jurkat E6.1 cells, sequence (P07766 23-207): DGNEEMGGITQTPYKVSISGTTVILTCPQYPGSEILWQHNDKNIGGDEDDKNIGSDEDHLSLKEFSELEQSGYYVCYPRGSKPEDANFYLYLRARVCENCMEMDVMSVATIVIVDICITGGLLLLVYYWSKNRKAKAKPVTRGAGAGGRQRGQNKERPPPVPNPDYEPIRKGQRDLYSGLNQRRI
median fluorescence intensity [1],median fluorescence intensity [2],median fluorescence intensity [3],median fluorescence intensity [4],median fluorescence intensity [5],median fluorescence intensity [6],median fluorescence intensity [7],median fluorescence intensity [8],Kd (FcRn receptor) [nM],Substance
58.3,56.5,55,55.4,60.8,66.4,58.7,55.5,–,Rituximab (antibody)
–,–,–,–,–,–,–,–,1740,Irrelevant IgG1 WT (antibody)
